The values below come from publication PMC12381214, “Multi-state catch bond formed in the Izumo1:Juno complex that initiates human fertilization” (Nature Communications, 2025).

Holding throughout (conditions): both partners purified
Experiment [1] addresses T1, human Juno ectodomain H177Q, infertility-associated variant (JunoH177Q-His10-SpyTag-LPETGG) (human, H177Q (stands in the printed letters), glycosylated (sites not given); SpyTag joined by an isopeptide bond to a SpyCatcher polyprotein).
T1 construct: Juno, human, ectodomain (ECD), UniProt A6ND01, natural variant H177Q found in patients; also called HBM-JunoH177Q-His10-SpyTag-LPETGG; source: Sf9 (ExpiSF) cells, baculovirus, secreted, purified (Ni resin, SEC); not shown: HBM secretion signal peptide, N-terminal, cleaved; His10, C-terminal, kept; SpyTag, C-terminal, kept; LPETGG sortase motif, C-terminal, kept
As to the kind of experiment: flow cytometry-based bead-binding assay; Juno held on 3.75 µm polystyrene beads through the ybbR AFM-handle; Izumo1 labelled with SpyCatcher-GFP, 5-fold dilution series of 7 dilutions from 100x the expected KD, 3 h, 0.1% tween 20 in TBS-G (20 mM Tris-HCl, 300 mM NaCl, 10% glycerol, pH 8.0); Hill equation fitted. On the technique in general: Flow cytometry measures light scatter and fluorescence of single cells or particles in a stream.

In experiment [2] the target is T2, human Juno ectodomain, wild type (Juno-His10-SpyTag-LPETGG) (human, glycosylated (sites not given); SpyTag joined by an isopeptide bond to a SpyCatcher polyprotein).
T2 construct: Juno, human, ectodomain (ECD), UniProt A6ND01; the stretch between the HBM signal peptide and His10 in the printed construct; the printed construct has a D between the signal's ...YIYA and G20 that may stay on the mature protein; also called Folr4; Izumo1r; source: Sf9 (ExpiSF) cells, baculovirus, secreted, purified (Ni resin, SEC); not shown: HBM secretion signal peptide, N-terminal, cleaved; …
T2 sequence (chain, as listed by the source): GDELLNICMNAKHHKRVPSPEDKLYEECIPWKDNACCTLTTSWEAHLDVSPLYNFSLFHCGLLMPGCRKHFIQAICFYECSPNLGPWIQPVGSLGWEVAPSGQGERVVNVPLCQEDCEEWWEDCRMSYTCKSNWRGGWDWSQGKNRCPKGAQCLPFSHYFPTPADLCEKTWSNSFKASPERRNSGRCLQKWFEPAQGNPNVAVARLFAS
The experiment is described as above.

Experiment [3] addresses T2, human Juno ectodomain, wild type …. As to the kind of experiment: AFM single-molecule force spectroscopy (constant speed); Izumo1 on the cantilever and Juno on the cover glass, each covalently held by its C-terminus through a ddFLN4-ELP-ybbR handle; contact 0.2 s, retraction at 800, 1600, 3200, 6400 nm·s^−1; PBS pH 7.4.

T1 sequence (chain, as listed by the source with the stated changes): as the sequence (chain, as listed by the source) above, with H158Q counted along it

B1: human Izumo1 ectodomain, wild type (Izumo1-His10-SpyTag-LPETGG) (domain or fragment)
chain: CVICDPSVVLALKSLEKDYLPGHLDAKHHKAMMERVENAVKDFQELSLNEDAYMGVVDEATLQKGSWSLLKDLKRITDSDVKGDLFVKELFWMLHLQKETFATYVARFQKEAYCPNKCGVMLQTLIWCKNCKKEVHACRKSYDCGERNVEVPQMEDMILDCELNWHQASEGLTDYSFYRVWGNNTETLVSKGKEATLTKPMVGPEDAGSYRCELGSVNSSPATIINFHVTVLP
modifications: glycosylated (sites not given); SpyTag joined by an isopeptide bond to a SpyCatcher polyprotein
notes: Izumo1, human, ectodomain (ECD), UniProt Q8IYV9; the stretch between the HEM signal peptide and His10 in the printed construct; also called HEM-Izumo1-His10-SpyTag-LPETGG; Izumo1-GFP; source: Sf9 (ExpiSF) cells, baculovirus, secreted, purified (Ni resin, SEC); not shown: HEM secretion signal peptide, N-terminal, cleaved; His10, C-terminal, kept; SpyTag, C-terminal, kept; LPETGG sortase motif, …
For the molecule B1, the Kd in experiment [1] was 64 nM; in experiment [2], 45 nM.

B2: human Izumo1 ectodomain H157A (Izumo1H157A-His10-SpyTag-LPETGG) (domain or fragment)
chain: CVICDPSVVLALKSLEKDYLPGHLDAKHHKAMMERVENAVKDFQELSLNEDAYMGVVDEATLQKGSWSLLKDLKRITDSDVKGDLFVKELFWMLHLQKETFATYVARFQKEAYCPNKCGVMLQTLIWCKNCKKEVAACRKSYDCGERNVEVPQMEDMILDCELNWHQASEGLTDYSFYRVWGNNTETLVSKGKEATLTKPMVGPEDAGSYRCELGSVNSSPATIINFHVTVLP
modifications: glycosylated (sites not given); SpyTag joined by an isopeptide bond to a SpyCatcher polyprotein
notes: Izumo1, human, ectodomain (ECD), UniProt Q8IYV9, with H157A; also called HEM-Izumo1H157A-His10-SpyTag-LPETGG; source: Sf9 (ExpiSF) cells, baculovirus, secreted, purified (Ni resin, SEC); not shown: HEM secretion signal peptide, N-terminal, cleaved; His10, C-terminal, kept; SpyTag, C-terminal, kept; LPETGG sortase motif, C-terminal, kept
On to B2, for which the binding result in experiment [3] is reported as “binds”.

B3: human Izumo1 ectodomain E71A (Izumo1E71A-His10-SpyTag-LPETGG) (domain or fragment)
chain: CVICDPSVVLALKSLEKDYLPGHLDAKHHKAMMERVENAVKDFQELSLNADAYMGVVDEATLQKGSWSLLKDLKRITDSDVKGDLFVKELFWMLHLQKETFATYVARFQKEAYCPNKCGVMLQTLIWCKNCKKEVHACRKSYDCGERNVEVPQMEDMILDCELNWHQASEGLTDYSFYRVWGNNTETLVSKGKEATLTKPMVGPEDAGSYRCELGSVNSSPATIINFHVTVLP
modifications: glycosylated (sites not given); SpyTag joined by an isopeptide bond to a SpyCatcher polyprotein
notes: Izumo1, human, ectodomain (ECD), UniProt Q8IYV9, with E71A; also called HEM-Izumo1E71A-His10-SpyTag-LPETGG; source: Sf9 (ExpiSF) cells, baculovirus, secreted, purified (Ni resin, SEC); not shown: HEM secretion signal peptide, N-terminal, cleaved; His10, C-terminal, kept; SpyTag, C-terminal, kept; LPETGG sortase motif, C-terminal, kept
Turning to B3, the binding result in experiment [3] was “binds”.

B4: human Izumo1 ectodomain K150A (Izumo1K150A-His10-SpyTag-LPETGG) (domain or fragment)
chain: CVICDPSVVLALKSLEKDYLPGHLDAKHHKAMMERVENAVKDFQELSLNEDAYMGVVDEATLQKGSWSLLKDLKRITDSDVKGDLFVKELFWMLHLQKETFATYVARFQKEAYCPNKCGVMLQTLIWCANCKKEVHACRKSYDCGERNVEVPQMEDMILDCELNWHQASEGLTDYSFYRVWGNNTETLVSKGKEATLTKPMVGPEDAGSYRCELGSVNSSPATIINFHVTVLP
modifications: glycosylated (sites not given); SpyTag joined by an isopeptide bond to a SpyCatcher polyprotein
notes: Izumo1, human, ectodomain (ECD), UniProt Q8IYV9, with K150A; also called HEM-Izumo1K150A-His10-SpyTag-LPETGG; source: Sf9 (ExpiSF) cells, baculovirus, secreted, purified (Ni resin, SEC); not shown: HEM secretion signal peptide, N-terminal, cleaved; His10, C-terminal, kept; SpyTag, C-terminal, kept; LPETGG sortase motif, C-terminal, kept
Turning to B4, the Kd in experiment [2] amounted to 110 nM. This lies in the sub-micromolar range.

B5: human Izumo1 ectodomain R160A (Izumo1R160A-His10-SpyTag-LPETGG) (domain or fragment)
chain: CVICDPSVVLALKSLEKDYLPGHLDAKHHKAMMERVENAVKDFQELSLNEDAYMGVVDEATLQKGSWSLLKDLKRITDSDVKGDLFVKELFWMLHLQKETFATYVARFQKEAYCPNKCGVMLQTLIWCKNCKKEVHACAKSYDCGERNVEVPQMEDMILDCELNWHQASEGLTDYSFYRVWGNNTETLVSKGKEATLTKPMVGPEDAGSYRCELGSVNSSPATIINFHVTVLP
modifications: glycosylated (sites not given); SpyTag joined by an isopeptide bond to a SpyCatcher polyprotein
notes: Izumo1, human, ectodomain (ECD), UniProt Q8IYV9, with R160A; also called HEM-Izumo1R160A-His10-SpyTag-LPETGG; source: Sf9 (ExpiSF) cells, baculovirus, secreted, purified (Ni resin, SEC); not shown: HEM secretion signal peptide, N-terminal, cleaved; His10, C-terminal, kept; SpyTag, C-terminal, kept; LPETGG sortase motif, C-terminal, kept
Regarding B5, the binding result in experiment [3] is recorded as “binds”.

For orientation: Kd means the concentration at which binding is half-saturated. Low values mean higher affinity, high ones lower affinity.
